The Human Domainome abundance scans (Beltran et al. 2025)

B1: Mineralocorticoid receptor, residues 600 to 675; numbered along this chain, P08235 (parent)
chain: SKICLVCGDEASGCHYGVVTCGSCKVFFKRAVEGQHNYLCAGRNDCIIDKIRRKNCPACRLQKCLQAGMNLGARKS

Variants of: B1
Experiment: abundance fitness (aPCA) (normalised: wild type 0, dead -1); higher = more abundant; growth selection in yeast, the domain comes from the species named
Settings: Homo sapiens

Abundance fitness: each site, then its substitutions
T20: D -0.49, E -0.522, N 0.064, A -0.072, Q -0.244, K -0.727, V 0.032, S -0.017, I -0.082, W -0.325, H -0.186, M -0.194, C -0.062, F -0.351, R -0.75, G -0.067
C7: T -0.999, S -0.96, Y -0.805, L -1.15, H -0.802, A -0.933, R -0.886, V -0.998, W -0.765
C4: M -0.96, K -0.87, N -1.04, H -0.77, L -0.768, G -0.842, E -0.727, A -1.37, Q -0.812, Y -0.99, I -0.808, D -0.549, S -0.851, T -0.837, V -0.989, W -1.06, P -0.986, F -0.753
V19: C -0.108, T -0.113, Q -0.02, Y -0.247, M 0.115, P 0.001, D -0.008, G -0.082, S 0.038, I -0.086, H -0.091, F 0.047, R -0.019, W -0.058, N 0.112, E 0.032, K 0.007, A 0.029
V18: Q -0.15, K -0.101, G -0.117, R -0.078, F -0.274, T -0.444, Y -0.284, C 0.112, W -0.457, D -0.155, H -0.333, P -0.157, M -0.233, E -0.202, L -0.06, I 0.045
C14: G -0.077, E -0.012, H -0.003, R -0.062, L -0.103, T -0.09, F -0.146, A -0.027, M 0.015, D -0.011, V -0.008, Y -0.069, N -0.047, W -0.049, Q 0.013, P -0.072
G13: Y -0.259, N 0.043, P -0.157, L -0.073, K 0.019, A -0.111, I -0.146, F -0.047, Q 0.032, W -0.268, R 0.028, T 0.016, H -0.016, M -0.035, V -0.092, S -0.033, C -0.407
Y16: G -0.061, W 0.024, H -0.022, Q -0.068, V 0.013, N -0.147, F -0.053, K -0.081, P -0.125, C -0.054, L -0.104, I -0.213, T -0.027, A -0.039, R -0.075, D -0.025, S -0.097
G22: N -0.236, D 0.008, P -0.054, Q -0.16, L -0.094, S -0.058, A -0.013, W -0.088, T -0.11, Y -0.222, E -0.017, K -0.063, C -0.178, H -0.109, M -0.035, I -0.259, R -0.103, V -0.093
I3: V -0.166, W -0.315, Y -0.027
A11: L -0.16, P -0.001, Q -0.037, N 0.031, Y -0.245, W -0.22, M -0.135, G -0.043, V -0.222, T -0.063, I -0.354, R -0.089, F -0.194, E -0.02, D -0.134, K -0.101, C -0.123, H -0.13, S -0.044
